Test results as given in the supplement of paper PMC12855868.

B1: library; numbered along this chain (parent)
chain: MAAAGGARLLRAASAVLGGPAGRWLHHAGSRAGSSGLLRNRGPGGSAEASRSLSVSARARSSSEDKITVHFINRDGETLTTKGKVGDSLLDVVVENNLDIDGFGACEGTLACSTCHLIFEDHIYEKLDAITDEENDMLDLAYGLTDRSRLGCQICLTKSMDNMTVRVPETVADARQSIDVGKTS

Variants of: B1
Experiment: scaled log2 fold change in cell abundance, elesclomol vs control (0 = silent mean, 1 = nonsense mean) (scaled log2 ratio); higher = higher viability under elesclomol (loss of FDX1 cuproptosis function)
Details: glucose 10 mM
[1] = with ABC1 FDX1 KO, elesclomol 5 nM, 14 days
[2] = with HEK293T FDX1 KO, elesclomol 40 nM, 11 days
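Also: variant abundance is its share of total variant reads in each endpoint sample, from next-generation sequencing of the integrated ORF PCR-amplified out of genomic DNA.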

Variant | scaled log2 fold change [1] | scaled log2 fold change [2]
MAAAGGARLLRAASAVLGGPAGRWLHHAGSRAGSSGLLRNRGPGGSAEASRSLSVSARARSSSEDKITVHFINRDGETLTTKGKVGDSLLDVVVANNLDIDGFGACEGTLACSTCHLIFEDHIYEKLDAITDEENDMLDLAYGLTDRSRLGCQICLTKSMDNMTVRVPETVADARQSIDVGKTS [E95A] | 0.102 | -0.337
MAAAGGARLLRAASAVLGGPAGRWLHHAGSRAGSSGLLRNRGPGGSAEASRSLSVSARARSSSEDKITVHFINRDGETLTTKGKVGDSLLDVVVGNNLDIDGFGACEGTLACSTCHLIFEDHIYEKLDAITDEENDMLDLAYGLTDRSRLGCQICLTKSMDNMTVRVPETVADARQSIDVGKTS [E95G] | -0.0448 | 0.982
MAAAGGARLLRAASAVLGGPAGRWLHHAGSRAGSSGLLRNRGPGGSAEASRSLSVSARARSSSEDKITVHFINRDGETLTTKGKVGDSLLDVVVDNNLDIDGFGACEGTLACSTCHLIFEDHIYEKLDAITDEENDMLDLAYGLTDRSRLGCQICLTKSMDNMTVRVPETVADARQSIDVGKTS [E95D] | 0.126 | 0.1
MAAAGGARLLRAASAVLGGPAGRWLHHAGSRAGSSGLLRNRGPGGSAEASRSLSVSARARSSSEDKITVHFINRDGETLTTKGKVGDSLLDVVVHNNLDIDGFGACEGTLACSTCHLIFEDHIYEKLDAITDEENDMLDLAYGLTDRSRLGCQICLTKSMDNMTVRVPETVADARQSIDVGKTS [E95H] | -0.106 | -0.636
MAAAGGARLLRAASAVLGGPAGRWLHHAGSRAGSSGLLRNRGPGGSAEASRSLSVSARARSSSEDKITVHFINRDGETLTTKGKVGDSLLDVVVFNNLDIDGFGACEGTLACSTCHLIFEDHIYEKLDAITDEENDMLDLAYGLTDRSRLGCQICLTKSMDNMTVRVPETVADARQSIDVGKTS [E95F] | -0.339 | -0.0798
MAAAGGARLLRAASAVLGGPAGRWLHHAGSRAGSSGLLRNRGPGGSAEASRSLSVSARARSSSEDKITVHFINRDGETLTTKGKVGDSLLDVVVCNNLDIDGFGACEGTLACSTCHLIFEDHIYEKLDAITDEENDMLDLAYGLTDRSRLGCQICLTKSMDNMTVRVPETVADARQSIDVGKTS [E95C] | -0.0222 | 
MAAAGGARLLRAASAVLGGPAGRWLHHAGSRAGSSGLLRNRGPGGSAEASRSLSVSARARSSSEDKITVHFINRDGETLTTKGKVGDSLLDVVTENNLDIDGFGACEGTLACSTCHLIFEDHIYEKLDAITDEENDMLDLAYGLTDRSRLGCQICLTKSMDNMTVRVPETVADARQSIDVGKTS [V94T] | -0.0231 | 
MAAAGGARLLRAASAVLGGPAGRWLHHAGSRAGSSGLLRNRGPGGSAEASRSLSVSARARSSSEDKITVHFINRDGETLTTKGKVGDSLLDVVMENNLDIDGFGACEGTLACSTCHLIFEDHIYEKLDAITDEENDMLDLAYGLTDRSRLGCQICLTKSMDNMTVRVPETVADARQSIDVGKTS [V94M] | -0.224 | 1.17
MAAAGGARLLRAASAVLGGPAGRWLHHAGSRAGSSGLLRNRGPGGSAEASRSLSVSARARSSSEDKITVHFINRDGETLTTKGKVGDSLLDVVNENNLDIDGFGACEGTLACSTCHLIFEDHIYEKLDAITDEENDMLDLAYGLTDRSRLGCQICLTKSMDNMTVRVPETVADARQSIDVGKTS [V94N] | -0.345 | -1.27
MAAAGGARLLRAASAVLGGPAGRWLHHAGSRAGSSGLLRNRGPGGSAEASRSLSVSARARSSSEDKITVHFINRDGETLTTKGKVGDSLLDVVQENNLDIDGFGACEGTLACSTCHLIFEDHIYEKLDAITDEENDMLDLAYGLTDRSRLGCQICLTKSMDNMTVRVPETVADARQSIDVGKTS [V94Q] | 0.235 | -0.226
MAAAGGARLLRAASAVLGGPAGRWLHHAGSRAGSSGLLRNRGPGGSAEASRSLSVSARARSSSEDKITVHFINRDGETLTTKGKVGDSLLDVVSENNLDIDGFGACEGTLACSTCHLIFEDHIYEKLDAITDEENDMLDLAYGLTDRSRLGCQICLTKSMDNMTVRVPETVADARQSIDVGKTS [V94S] | -0.223 | -1
MAAAGGARLLRAASAVLGGPAGRWLHHAGSRAGSSGLLRNRGPGGSAEASRSLSVSARARSSSEDKITVHFINRDGETLTTKGKVGDSLLDVVRENNLDIDGFGACEGTLACSTCHLIFEDHIYEKLDAITDEENDMLDLAYGLTDRSRLGCQICLTKSMDNMTVRVPETVADARQSIDVGKTS [V94R] | -0.258 | 1
MAAAGGARLLRAASAVLGGPAGRWLHHAGSRAGSSGLLRNRGPGGSAEASRSLSVSARARSSSEDKITVHFINRDGETLTTKGKVGDSLLDVVWENNLDIDGFGACEGTLACSTCHLIFEDHIYEKLDAITDEENDMLDLAYGLTDRSRLGCQICLTKSMDNMTVRVPETVADARQSIDVGKTS [V94W] | 0.0681 | 0.96
MAAAGGARLLRAASAVLGGPAGRWLHHAGSRAGSSGLLRNRGPGGSAEASRSLSVSARARSSSEDKITVHFINRDGETLTTKGKVGDSLLDVVYENNLDIDGFGACEGTLACSTCHLIFEDHIYEKLDAITDEENDMLDLAYGLTDRSRLGCQICLTKSMDNMTVRVPETVADARQSIDVGKTS [V94Y] | -0.0972 | 0.515
MAAAGGARLLRAASAVLGGPAGRWLHHAGSRAGSSGLLRNRGPGGSAEASRSLSVSARARSSSEDKITVHFINRDGETLTTKGKVGDSLLDVVLENNLDIDGFGACEGTLACSTCHLIFEDHIYEKLDAITDEENDMLDLAYGLTDRSRLGCQICLTKSMDNMTVRVPETVADARQSIDVGKTS [V94L] | 0.0554 | -0.336
MAAAGGARLLRAASAVLGGPAGRWLHHAGSRAGSSGLLRNRGPGGSAEASRSLSVSARARSSSEDKITVHFINRDGETLTTKGKVGDSLLDVVPENNLDIDGFGACEGTLACSTCHLIFEDHIYEKLDAITDEENDMLDLAYGLTDRSRLGCQICLTKSMDNMTVRVPETVADARQSIDVGKTS [V94P] | 0.617 | 0.378
MAAAGGARLLRAASAVLGGPAGRWLHHAGSRAGSSGLLRNRGPGGSAEASRSLSVSARARSSSEDKITVHFINRDGETLTTKGKVGDSLLDVVKENNLDIDGFGACEGTLACSTCHLIFEDHIYEKLDAITDEENDMLDLAYGLTDRSRLGCQICLTKSMDNMTVRVPETVADARQSIDVGKTS [V94K] | -0.573 | -0.482
